Laboratory results as given in patent US20220227882A1 (TRUSTEES OF TUFTS COLLEGE, published 2022).

T1: K458A (Homo sapiens, UniProt P78325)
T1 construct: expressed on HEK293 cells; also called human ADAM8 point mutant K458A
T1 sequence (ADAM8, looked up): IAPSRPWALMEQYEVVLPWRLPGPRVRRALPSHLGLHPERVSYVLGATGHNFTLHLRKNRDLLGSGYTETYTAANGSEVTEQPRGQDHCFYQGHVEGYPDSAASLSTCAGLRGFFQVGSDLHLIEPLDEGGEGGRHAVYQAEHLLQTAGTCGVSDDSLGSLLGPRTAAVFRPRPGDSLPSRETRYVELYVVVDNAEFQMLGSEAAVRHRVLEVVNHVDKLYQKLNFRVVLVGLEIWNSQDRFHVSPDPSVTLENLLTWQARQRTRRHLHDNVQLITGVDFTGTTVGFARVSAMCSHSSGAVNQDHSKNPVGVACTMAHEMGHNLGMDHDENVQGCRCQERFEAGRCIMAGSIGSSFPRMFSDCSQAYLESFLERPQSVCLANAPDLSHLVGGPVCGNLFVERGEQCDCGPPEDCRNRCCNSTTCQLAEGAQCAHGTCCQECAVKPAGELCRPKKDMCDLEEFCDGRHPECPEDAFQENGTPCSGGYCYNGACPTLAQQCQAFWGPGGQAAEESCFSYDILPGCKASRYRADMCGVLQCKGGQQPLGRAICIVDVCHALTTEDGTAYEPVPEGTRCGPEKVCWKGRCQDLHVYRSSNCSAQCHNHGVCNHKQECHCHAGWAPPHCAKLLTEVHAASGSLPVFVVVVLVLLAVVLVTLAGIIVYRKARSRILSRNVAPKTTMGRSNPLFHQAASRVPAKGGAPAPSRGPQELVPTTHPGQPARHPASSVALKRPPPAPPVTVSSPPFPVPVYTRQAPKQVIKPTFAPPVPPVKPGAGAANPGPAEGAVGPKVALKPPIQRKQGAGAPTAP

T2: Recombinant human ADAM15 (Sino Biological, 10517-H08H) (human, UniProt Q13444 18-696)
T2 sequence (looked up): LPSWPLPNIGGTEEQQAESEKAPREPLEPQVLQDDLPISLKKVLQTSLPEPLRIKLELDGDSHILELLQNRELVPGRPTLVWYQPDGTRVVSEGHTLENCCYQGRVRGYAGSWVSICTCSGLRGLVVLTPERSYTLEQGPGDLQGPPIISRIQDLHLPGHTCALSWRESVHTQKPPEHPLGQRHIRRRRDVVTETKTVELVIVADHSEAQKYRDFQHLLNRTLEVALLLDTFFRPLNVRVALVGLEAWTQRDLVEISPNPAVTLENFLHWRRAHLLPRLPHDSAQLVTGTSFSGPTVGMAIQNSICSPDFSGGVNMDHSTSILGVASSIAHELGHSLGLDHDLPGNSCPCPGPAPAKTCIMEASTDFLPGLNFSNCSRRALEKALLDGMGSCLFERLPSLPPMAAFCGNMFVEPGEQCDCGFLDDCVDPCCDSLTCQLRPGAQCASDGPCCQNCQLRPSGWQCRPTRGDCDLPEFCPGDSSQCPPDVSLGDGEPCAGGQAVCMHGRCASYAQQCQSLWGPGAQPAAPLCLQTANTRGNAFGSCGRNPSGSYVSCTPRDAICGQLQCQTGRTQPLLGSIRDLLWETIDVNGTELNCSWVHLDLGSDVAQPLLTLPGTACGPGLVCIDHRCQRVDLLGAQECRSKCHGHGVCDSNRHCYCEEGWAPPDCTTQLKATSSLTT


Legend:
K458A = biological target: T1, K458A; assay: high-throughput flow cytometry, HEK293 cells with mutant ADAM8, high stringency; range in parentheses; closed box
Procedure: A variety of experimental parameters were optimized for high-throughput flow cytometry including blocking buffer, and primary and secondary antibody concentrations, to identify the optimal conditions for screening. Through these studies ADP2 and ADP13 were determined to be high affinity binding antibodies.
Thus, for these studies antigen-binding fragments (Fabs) of ADP2 and ADP13, which bind with lower affinity than the full antibody, were generated. In addition, higher binding stringency conditions were tested, such as increased pH, salinity, and temperature, and/or increased washing, to weaken binding sufficiently to allow identification of critical binding residues in flow cytometry. The final experimental flow cytometry conditions were: primary antibody incubation with ADP2 Fab (0.50 μg/ml), ADP13 Fab (5.00 μg/ml) and Control Ab (0.16 μg/ml) for 60 minutes in flow cytometry buffer containing 10% goat serum in PBS (Ca²⁺ and Mg²⁺ free). […] Samples were washed three times after primary antibody incubation and twice after secondary antibody incubation with PBS (Ca²⁺ and Mg′ free). Next, HEK293 cells expressing WT or mutated ADAM8 proteins or EV DNA were incubated with ADP2 or ADP13 Fabs or Control Ab at their optimal concentrations. Fab binding was detected using Alexa Fluor 488-conjugated secondary antibodies and mean cellular fluorescence determined using the Intellicyt iQue flow cytometry platform. […] This counter-screen strategy facilitates the exclusion of mutants that are locally misfolded or that have an expression defect. Binding of each test Fab to each mutant clone in the alanine scanning library was determined, in duplicate, by high-throughput flow cytometry.

[1] = biological target: T2, Recombinant human ADAM15 (Sino …); assay: ELISA, recombinant ADAM15
Procedure: ELISA assays were also used to test hybridoma clones, subclones and purified ADP antibodies for specificity of ADAM8 binding, i.e., binding to rHuADAM8 (Acro Biosystems, AD8-H5223) was compared to binding to closely related recombinant human ADAM proteins: […], ADAM12 (Acro Biosystems, AD2-H5228) and ADAM15 (Sino Biological, 10517-H08H). For analysis of clones and subclones, 50 μl of cell supernatants were used. A test bleed sample (1:1000) was used as a positive control. Hybridoma culture medium or a pre-bleed serum sample (1:1000) was used as a negative control. Purified mouse ADPs were assessed at 1 μg/ml vs normal mouse IgG and with a test bleed sample as a positive control. ADP binding was detected with a goat anti-mouse IgG (Fc specific)-peroxidase antibody (1:5000, Sigma-Aldrich, A0168).

Row | Binder | Binding Reactivity (% WT) (K458A) | binding result [1]
1 | ADP13 Fab (Fab, V domains shown) VH: EVQLQQSGPEMVKPGTSVKISCKASGYTFTDYYINWVKQSHGKSLEWIGDISPNIGGATYNPKFKGKAILTVDKSARTAYMELRSLTSEDSAVYCCTRGGSSYPYFYAMDYWGQGTSVTVSS VL: DIVMSQSPSSLAVSVGEKVTMSCKSSQSLLYSSNQKKYLAWYQQKPGQSPKLLIYWASTRESGVPDRFTGSGSGTDFTLTISSVKAEDLAVYYCQQFYSYPYTFGGGTKLEINR | 13.5 % WT | 
2 | ADP2 (antibody, V domains shown, also called mADP2; mouse ADP2) VH: EVKLVESGGGLVQPGGSLSLSCAASGFSFPDYYMSWVRQPPGKALEWLGFIRDSANGYTTEYIASVKGRFTFSRDNSQSILYLQMNALRAEDSATYYCARYSRYYGMDYWGQGTSVTVSS VL: SIVMTQTPKILLVSAGDRVTITCKASQTVNYDVAWYQQKPGQSPKPVIYFASNRYTGVPDRFTGSGFGTDFTFTISTVQAEDLAVYFCQQDYSAPWTFGGGTKLEIK |  | no binding (tested: 1 µg/ml)
